target: DYNC2H1 [human (endogenous in RPE1)]; experiment: GFP-trap purification, TMT-labelling and mass spectrometry; conditions: RPE1 WDR34 KO cell lines expressing GFP proteins, serum-starved for 24 h; read off a plot

Row | Substance | ratio to parent
1 | GFP–WDR34-WT mutant K436R [human] / DYNC2H1 [human (endogenous in RPE1)] chain 1 K436R | 2
2 | GFP–WDR34-WT mutant R206C [human] / DYNC2H1 [human (endogenous in RPE1)] chain 1 R206C | 2.7
3 | GFP–WDR34-WT mutant C148F [human] / DYNC2H1 [human (endogenous in RPE1)] chain 1 C148F | 0.55
4 | GFP–WDR34-WT mutant A341V [human] / DYNC2H1 [human (endogenous in RPE1)] chain 1 A341V | 2
5 | GFP–WDR34-WT mutant R447W [human] / DYNC2H1 [human (endogenous in RPE1)] chain 1 R447W | 0.93
6 | GFP–WDR34-WT mutant S410I [human] / DYNC2H1 [human (endogenous in RPE1)] chain 1 S410I | 0.45
7 | GFP–WDR34-WT mutant R447Q [human] / DYNC2H1 [human (endogenous in RPE1)] chain 1 R447Q | 0.62
8 | GFP–WDR34-WT mutant G393S [human] / DYNC2H1 [human (endogenous in RPE1)] chain 1 G393S | 0.3

Other lines, results leading:

Row | ratio to parent | Substance
9 | 2 | GFP–WDR34-WT mutant R182W [human] / DYNC2H1 [human (endogenous in RPE1)] chain 1 R182W
10 | 1.6 | GFP–WDR34-WT mutant P390L [human] / DYNC2H1 [human (endogenous in RPE1)] chain 1 P390L
11 | 0.93 | GFP–WDR34-WT mutant A22V [human] / DYNC2H1 [human (endogenous in RPE1)] chain 1 A22V
12 | 0.22 | GFP–WDR34-WT mutant T354M [human] / DYNC2H1 [human (endogenous in RPE1)] chain 1 T354M

From PMC9687537
